System: AKAR3 (A-Kinase Activity Reporter 3)

Substance: catalytic subunit of PKA (protein kinase A), as used in the in vitro kinase assay
- FRET efficiency of AKAR3 after phosphorylation (trypsin quantification): 38.8%±7.36% and 47.2%±7.67% (n=2) before and after phosphorylation, respectively
- FRET efficiency of AKAR3 before phosphorylation (trypsin quantification): 38.8%±7.36% and 47.2%±7.67% (n=2) before and after phosphorylation, respectively
- increase of the emission ratio of AKAR3 over approximately 40 minutes after addition of ATP (in vitro kinase assay): 29.1%±1.11% (n=2)
